In patent US20220259593A1, “CONTROL OF MAMMALIAN GENE DOSAGE USING CRISPR” (The Regents of the University of California, priority 2019, published 2022):
Positions count from the first letter of the chain named.

B1: cr944 (nucleic acid)
guide: GTTTAAGAGCTAAGCTGGAAACAGCATAGCAAGTTTAAATAAGGCTAGTCCGTTATCAACTCGAAAGAGTGGTACCAAGTTGGTACT
modifications: listed as DNA, chemistry not fully specified
B2: cr360 (nucleic acid)
guide: B1 guide with C62T, G67A, T73C, C75T, A77G, T81C, G83A, A85G
modifications: listed as DNA, chemistry not fully specified
B3: cr825 (nucleic acid)
guide: B1 guide with C62T, G67A, T73C, A74T, C75G, A77G, T81C, G83C, T84A, A85G
modifications: listed as DNA, chemistry not fully specified
B4: cr831 (nucleic acid)
guide: B1 guide with C60T, C62T, G67A, G69A, T73C, A77G, T81C, A85G
modifications: listed as DNA, chemistry not fully specified
B5: cr994 (nucleic acid)
guide: B1 guide with C62T, G67A, T73C, A77G, G79T, T81C, A85G
modifications: listed as DNA, chemistry not fully specified
B6: cr646 (nucleic acid)
guide: B1 guide with C60A, C62T, G67A, G69T, T73C, A74T, A77G, T81C, T84A, A85G
modifications: listed as DNA, chemistry not fully specified
B7: cr372 (nucleic acid)
guide: B1 guide with T46G, C62T, G67A, T73C, A77G, T81C, A85G
modifications: listed as DNA, chemistry not fully specified
B8: cr306 (nucleic acid)
guide: B1 guide with A47T, C62T, G67A, T73C, A77G, A78T, T81C, A85G
modifications: listed as DNA, chemistry not fully specified
B9: cr131 (nucleic acid)
guide: B1 guide with C62T, A65G, G67A, T73C, C76A, A77G, T81C, G82T, A85G
modifications: chemistry not given here
B10: cr287 (nucleic acid)
guide: B1 guide with C62T, A65T, G67A, T73C, A77G, G79C, T81C, A85G
modifications: listed as DNA, chemistry not fully specified
B11: cr161 (nucleic acid)
guide: B1 guide with C62T, A66C, G67A, T73C, A77G, G79C, T81C, A85G
modifications: listed as DNA, chemistry not fully specified
B12: cr416 (nucleic acid)
guide: B1 guide with C62T, G67A, T73C, A74G, T84C, A85G
modifications: listed as DNA, chemistry not fully specified
B13: cr938 (nucleic acid)
guide: B1 guide with A47G, C62T, G67A, T73C, A77G, T81C, A85G
modifications: listed as DNA, chemistry not fully specified
B14: cr167 (nucleic acid)
guide: B1 guide with T61C, C62T, G67A, T73C, A77G, T81C, A85G
modifications: listed as DNA, chemistry not fully specified
B15: cr707 (nucleic acid)
guide: B1 guide with C62T, G67A, T73C, A77G, A78T, T81C, A85G
modifications: listed as DNA, chemistry not fully specified
B16: cr102 (nucleic acid)
guide: B1 guide with C60T, C62T, G67A, G69A, T73A, A77G, T81C, A85T
modifications: listed as DNA, chemistry not fully specified
B17: cr267 (nucleic acid)
guide: B1 guide with G18C, C62T, G67A, T73C, A77G, T81C, A85G
modifications: listed as DNA, chemistry not fully specified

Tested on: K562 CRISPRi cells
Assay: Constant region variant library pooled growth screen, K562
Format: cell-based, human
Settings: sgRNA constant region variants; activity relative to the original, un-modified constant region cr995
How it was run: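 Library of sgRNA constant-region variants, each paired with 36 targeting sequences (essential-gene and non-targeting), transduced in duplicate into K562 CRISPRi cells, puromycin-selected and grown 4–8 days at >2000× coverage. Activity per variant is its growth phenotype normalised to the same targeting sequence with unmodified constant region.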

| Molecule | Mean relative activity |
| --- | --- |
| B1 | 1.065 |
| B2 | 1.066 |

Same assay, conditions: sgRNA constant region variants; activity relative to the un-modified constant region cr995

| Molecule | Mean relative activity |
| --- | --- |
| B3 | 0.9691 |
| B4 | 0.962 |
| B5 | 0.9671 |
| B6 | 0.962 |
| B7 | 0.9545 |
| B8 | 0.9647 |
| B9 | 0.96 |
| B10 | 0.9686 |
| B11 | 0.9671 |
| B12 | 0.9574 |
| B13 | 0.9596 |
| B14 | 0.9545 |
| B15 | 0.9632 |
| B16 | 0.9651 |
| B17 | 0.9552 |
